This is an account of results in patent US7294706.

A value given as a limit tells only on which side of the number the result lay.

The test concerns the target FGFR2 over-expressed on CHO cells (CHO-FGFR2) and on 32D cells (32D-FGFR2) (UniProt P21803). The test is described as follows: competition of unlabeled protein with 125I-FGF4 (Gly79-Leu206) for CHO-FGFR2 cells, +heparin.

Regarding “FGF4 (Gly79-Leu206) N89A/K198A/K183A/K188A (from UniProt P08620 79-206) (ligand)”, the IC50 mutant/IC50 wild-type (ratio (IC50 mutant/IC50 wild-type)) is more than 1000.
